Results: PMC2757159

Key:
[1] = target: human copper chaperone for SOD1 (human); assay: native gel or EMSA
[2] = target: yeast copper chaperone for SOD1 (yeast); assay: native gel or EMSA
[3] = target: human copper chaperone for SOD1 (human); assay: SEC
[4] = target: human copper chaperone for SOD1 (human); assay: SEC; remark: listed apart in the source

| stoichiometry N [1] | stoichiometry N [2] | stoichiometry N [3] | stoichiometry N [4] | Substance |
| --- | --- | --- | --- | --- |
| 1 SOD1:CCS | 1 SOD1:CCS | – | – | human H46R/H48Q copper-zinc superoxide dismutase (SOD1) double mutant (from UniProt P00441 1-154) (enzyme) |
| – | – | 4 | 4 | human copper chaperone for SOD1 (natural protein) |
